The target in this assay is T1, IL-22 receptors R1 and R2 on HEK-Blue IL-22 reporter cells (UniProt Q8N6P7).
T1 sequence (looked up) 1: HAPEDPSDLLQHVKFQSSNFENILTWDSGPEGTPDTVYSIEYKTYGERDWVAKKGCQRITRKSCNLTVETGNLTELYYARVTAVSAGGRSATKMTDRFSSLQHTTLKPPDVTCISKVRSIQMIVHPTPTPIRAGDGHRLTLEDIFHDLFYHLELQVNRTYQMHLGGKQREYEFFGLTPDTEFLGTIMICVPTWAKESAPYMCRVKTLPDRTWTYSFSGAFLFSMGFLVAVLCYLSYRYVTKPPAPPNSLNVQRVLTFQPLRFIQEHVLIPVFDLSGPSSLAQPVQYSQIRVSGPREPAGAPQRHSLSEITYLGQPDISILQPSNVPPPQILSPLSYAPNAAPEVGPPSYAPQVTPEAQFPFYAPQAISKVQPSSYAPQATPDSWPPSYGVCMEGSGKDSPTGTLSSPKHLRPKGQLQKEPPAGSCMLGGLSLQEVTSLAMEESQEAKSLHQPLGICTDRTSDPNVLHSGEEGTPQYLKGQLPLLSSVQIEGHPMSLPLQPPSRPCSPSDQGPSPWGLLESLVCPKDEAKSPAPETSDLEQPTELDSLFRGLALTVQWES
T1 sequence (looked up) 2: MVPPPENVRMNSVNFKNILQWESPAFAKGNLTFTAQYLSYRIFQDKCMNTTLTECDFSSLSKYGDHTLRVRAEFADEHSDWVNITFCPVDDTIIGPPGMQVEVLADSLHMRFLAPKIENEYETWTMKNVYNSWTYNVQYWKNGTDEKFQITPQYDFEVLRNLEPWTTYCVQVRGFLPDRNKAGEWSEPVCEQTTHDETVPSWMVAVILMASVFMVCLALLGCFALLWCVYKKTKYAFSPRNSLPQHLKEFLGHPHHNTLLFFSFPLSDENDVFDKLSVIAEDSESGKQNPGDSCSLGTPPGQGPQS
In words: cell-based or functional assay.

B1: IL22 WT (monomeric IL22 based on the IL22 crystal, PDB 3dlq, expressed in bacteria) (ligand)
chain: ARLDKSNFQQPYITNRTFMLAKEASLADNNTDVRLIGEKLFHGVSMSERCYLMKQVLNFTLEEVLFPQSDRFQPYMQEVVPFLARLSNRLSTCHIEGDDLHIQRNVQKLKDTVKKLGESGEIKAIGELDLLFMSLRNACI
As for B1, the Kd (apparent, HEK-Blue IL-22 reporter) was 0.017 nM.

Source of the values: patent publication US20260008830A1.
